Assay results as given in patent publication US20240000838A1 (SIMCERE INNOVATION, published 2024).

Biological target: T1, Human CD5 Protein, HisTag (AcroBiosystems, Cat #CD5-H52H5) (human, UniProt P06127 25-372)
T1 construct: Bought staining reagent, detected with His-APC antibody; also called CD5 antigen; APC labeled CD5 antigen; not shown: His tag
T1 sequence (looked up): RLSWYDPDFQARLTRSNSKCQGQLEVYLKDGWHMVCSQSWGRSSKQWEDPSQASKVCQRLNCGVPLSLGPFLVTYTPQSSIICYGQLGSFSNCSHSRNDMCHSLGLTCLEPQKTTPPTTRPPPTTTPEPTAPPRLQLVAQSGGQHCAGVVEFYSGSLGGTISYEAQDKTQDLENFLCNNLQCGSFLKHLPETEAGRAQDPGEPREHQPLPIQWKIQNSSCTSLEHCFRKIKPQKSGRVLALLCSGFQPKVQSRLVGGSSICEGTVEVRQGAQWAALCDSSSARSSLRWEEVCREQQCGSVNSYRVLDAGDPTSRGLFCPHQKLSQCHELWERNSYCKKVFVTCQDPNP
Assay: flow cytometry; CAR-T cells stained with soluble human CD5-His and His-APC antibody
Description: CD3 and CD5 are stained with a CD3-FITC antibody (BD Biosciences, #555339) and a CD5-APC antibody (BD Biosciences, #555355) for 30 minutes at R.T. in the dark. CAR5 surface expression is detected by staining with Human CD5 Protein, HisTag (AcroBiosystems, Cat #CD5-H52H5) for 1 hour at R.T., washed and then incubated with His-APC antibody (R&D Systems, IC050A) for 30 minutes at R.T. in the dark. CAR33 expression is stained with CD33 human protein-PE (Sino Biological, 12238-HCCH_P) for 1 hour at R.T. All the staining is performed at 1:10 dilutions. DAPI (Thermo Scientific, Cat #BV-421, 1:5000) is used to stain dead cells before running by the Attune NxT Flow Cytometer (Thermo Fisher Scientific). Data is further analyzed by either using Attune NxT flow software or FlowJo software.

B1: CD5 CAR CAR5-6, construct S010 (other)
chain: EIQLVQSGGGLVKPGGSVRISCAASGYTFTNYGMNWVRQAPGKGLEWMGWINTHTGEPTYADSFKGRFTFSLDDSKNTAYLQINSLRAEDTAVYFCTRRGYDWYFDVWGQGTTVTVSSGGGGSGGGGSGGGGSDIQMTQSPSSLSASVGDRVTITCRASQDINSYLSWFQQKPGKAPKTLIYRANRLESGVPSRFSGSGSGTDYTLTISSLQYEDFGIYYCQQYDESPWTFGGGTKLEIKASTTTPAPRPPTPAPTIASQPLSLRPEACRPAAGGAVHTRGLDFACDIYIWAPLAGTCGVLLLSLVITLYCKRGRKKLLYIFKQPFMRPVQTTQEEDGCSCRFPEEEEGGCELRVKFSRSADAPAYKQGQNQLYNELNLGRREEYDVLDKRRGRDPEMGGKPRRKNPQEGLYNELQKDKMAEAYSEIGMKGERRRGKGHDGLYQGLSTATKDTYDALHMQALPPR
notes: Chimeric antigen receptor on T cells
- % of T cells stained with CD5 antigen (CAR5 expression): > 80%
